This passage reports specific binding in membranes (dpm, set to 100%) results from paper PMC4271737.

Assay [1] concerns the target human angiotensin II type 1 receptor with a C-terminal decahistidine tag (AT1R-H10) (human) (UniProt P30556). Description: radioligand binding; non-solubilised membranes (briefly sonicated cells); 0.5 nM [125I]Sar1 with 100 nM unlabelled Sar1; bound and free ligand separated by filtration through 96-well glass fibre filter plates without polyethyleneimine; background from parental or uninfected cells.

Assay [2] addresses human angiotensin II type 1 receptor with a C-terminal GFP-H10 tag (AT1R-GFP-H10) (human) (UniProt P30556). Described as above.

Take “[^125I]sar^1-Ile^8-angiotensin II (peptide)”: the specific binding in membranes (dpm, set to 100%) in assay [1] amounted to 1400 dpm; in assay [2], 12000 dpm.
